Patent US20260130973A1, “COMPOSITIONS AND METHODS FOR DEGRADATION OF LIPOFUSCIN CYCLORETINAL BY MSP1” (THE TEXAS A&M UNIVERSITY SYSTEM, priority 2022, published 2026)
“Also recorded” adds a separate entry of the source.

Assays:
ARPE-19 cells = test: ARPE-19 cytotoxicity of liposomal complexes, MTT assay; format: cell-based; conditions: similar concentrations as cycloretinal, 96-h period
Experimental: The liposomal complexes were prepared as follows. Cycloretinal (10 mg), β-Ionone (20 mg), and 2,4-Dimethylbenzaldehyde (20 mg) were dissolved separately in ethanol (1 mL). Glyoxal (5.80 mg), methylglyoxal (7.21 mg), and β-cyclocitral (15.2 mg) were dissolved separately in chloroform (1 mL). A liposome solution of cholesterol (112 mg), Tween 80 (504 mg), and L-α-phosphatidylcholine (730 mg) were dissolved in 16 mL of chloroform. Liposome solution (2 mL) was added to each of the compounds. The solvents were removed under vacuum and charged with nitrogen. Each of the flasks were then mixed with 5 mL of water and stirred at 60° C. for 1 h. Each solution was placed on ice and sonicated with a probe sonicator (15 seconds on/15 seconds off) for 5 min. The solutions were centrifuged at 11,000×g for 30 min and filtered through a 0.2 μm filter. Each sample (10 μL) was added to 1 mL ethanol and measured by absorption via UV-Vis spectroscopy. The extinction coefficients were 9970 M^−1cm^−1, 26343 M^−1cm^−1, and 13476 M^−1cm^−1 for cycloretinal, 2,4-dimethylbenzaldehyde, and β-ionone, respectively. […]
Cell viability was assessed with the MTT cell proliferation assay. […] The absorbance was subsequently evaluated at 570 nm utilizing a microplate reader (quant absorbance plate reader, BioTek Instruments Inc.) […]

[1] = Activity of MsP1 at different pH (cycloretinal degradation); format: biochemical
Experimental: To determine the optimum pH for MsP1 activity, cycloretinal degradation reactions were carried out in PBS buffer as described herein but at different pH values by adjusting pH with either NaOH or HCl (i.e. a pH of 5.5, 6.4, 7.0, 7.5). Sample OD values were monitored using a UV-Vis spectrophotometer (Genesys™2, ThermoSpectronic) at 430 nm over a period of 300 seconds.

[2] = substrate: CC(C=CC1=C(C)CCCC1(C)C)=CC=CC1=CC=C(C=O)C(C)(C=CC=C(C)C=CC2=C(C)CCCC2(C)C)C1; test: MsP1 H365F variant-catalyzed degradation of cycloretinal, steady-state enzyme kinetics; format: biochemical, Marasmius scorodonius; conditions: other: H365F, PBS pH 7.4, H2O2, 430 nm, mean and 95% confidence limits
Experimental: (§1) The gene encoding Marasmius scorodonius extracellular peroxidase MsP1 (UniProtKB, B0BK71) and its R388L variant were chemically synthesized with codon optimization for E. coli, having an optimized sequence length 1539 bp cloned into pUC57 vector with a GC content of 54.67% (SEQ ID NO: 5).
(§2) MsP1 mutants were generated using the Agilent mutagenesis kit (Quick change II site directed mutagenesis kit, catalog number: 200523) and primers of Table 1. Primer annealing was carried out at 55° C. for 60 seconds followed by a polymerization step carried out at 68° C. for 5 minutes. A total of 16 cycles were carried out. After PCR amplification DpnI digestion was performed by adding 1.5 μL DpnI to PCR amplification mixture incubating for 4 hours at 37° C. The resulting mixture was cleaned using resin provided in the kit and transformed into XL1 Blue electrocompetent cells. The resulting clones were screened and sequenced to confirm mutagenesis.
(§3) Active site residues were selected based on multiple sequence alignment with homologous DyPs and protein modelling, His 365, Asp 228, and Arg 388 were identified as amino acids that are critical to MsP1 activity. […] This means that wtMsP1 has greater substrate affinity for cycloretinal, compared with D228A and R388L variants, and reaches half maximal velocity at lower substrate concentration. […] The greater affinity observed for the phenylalanine variant likely signifies that cycloretinal can dock with greater affinity in the active site since the iron porphyrin heme cofactor would no longer be covalently bound at residue 365. Therefore, the residues involved in MsP1 catalysis are D228, H365, and R388 (FIG. 10).

[3] = substrate: CC(C=CC1=C(C)CCCC1(C)C)=CC=CC1=CC=C(C=O)C(C)(C=CC=C(C)C=CC2=C(C)CCCC2(C)C)C1; test: MsP1 R388L variant-catalyzed degradation of cycloretinal, steady-state enzyme kinetics; format: biochemical, Marasmius scorodonius; conditions: other: R388L, PBS pH 7.4, H2O2, 430 nm, mean and 95% confidence limits
Experimental: as §1, §2, §3

[4] = substrate: CC(C=CC1=C(C)CCCC1(C)C)=CC=CC1=CC=C(C=O)C(C)(C=CC=C(C)C=CC2=C(C)CCCC2(C)C)C1; test: MsP1 D228A variant-catalyzed degradation of cycloretinal, steady-state enzyme kinetics; format: biochemical, Marasmius scorodonius; conditions: other: D228A, PBS pH 7.4, H2O2, 430 nm, mean and 95% confidence limits
Experimental: as §1, §2, §3

[5] = substrate: CC(C=CC1=C(C)CCCC1(C)C)=CC=CC1=CC=C(C=O)C(C)(C=CC=C(C)C=CC2=C(C)CCCC2(C)C)C1; test: MsP1-catalyzed degradation of cycloretinal, steady-state enzyme kinetics (decrease in absorbance at 430 nm); format: biochemical, Marasmius scorodonius; conditions: other: wtMsP1, PBS pH 7.4, H2O2, 430 nm, mean and 95% confidence limits
Excerpt: as §1

With O=CC=O [glyoxal] the “impact on cell viability / toxicity to ARPE-19 cells” value (ARPE-19 cells) was “no impact on cell viability; also recorded: do not exhibit toxicity”.

B1: MsP1: peroxidase enzyme from the organism Marasmius scorodonius, SEQ ID NO: 1; recombinant, N-terminal hexa-Histidine tag (protein, listed as Mycetinis scorodonius)
chain: MKLFSASVFAAIIASHYASATAHIRAPNVKPRRTNSLLTAPPQQPPLPSAQQAASASSSAGLNLTDIQGDILIGMKKNKELFFFFSITDAATFKAKLGSDILELITSTNQLLAVATQPITAVNVAFSSTGLKALGITDDLKDPVFEAGMLSNAVSDLSDPGTGNWVPGFVGTSVHGVFLLASDTIDNVNTELANIQTILNGSITEIHRLQGEARPGDQQGHEHFGFMDGISNPAVDGFTPPAEIRPGQALIPPGIMLLGEANDTFQNDRPPWAKDGSFLVFRQMQQRAPEFNKFLQDHALNMPNMTSEQGADLLGARIVGRWKSDAPIDLTPLVDDPVLAADNQRNNNFDFSDATNQTRCPFSAHIRKANPRGDLGGINKFPNQHIIRAGIPYGPEVTDAEKASNSSSTDPSLERGLAFVAYQSNIQNGFVFLQKNWVDNTNFFRPGTGVDPLIGTNSRNSGTDAPNTPRVVSGLDPNNATSTIEIGIDFVVSRGGEYFFSPSLSAIRTVLSV
modifications: MsP1 amino acid sequence
For B1, the “optimal pH for MsP1 catalytic activity towards cycloretinal” value ([1]; pH 5.5, 6.4, 7.0, 7.5 tested) was 5.5 and the “activity at lysosomal pH” value ([1]; pH of 5.5) was “highly active”.

B2: Marasmius scorodonius peroxidase MsP1 variant H365F (parent SEQ ID NO: 1) (Mycetinis scorodonius; H365F) (protein)
chain: ASSSAGLNLTDIQGDILIGMKKNKELFFFFSITDAATFKAKLGSDILELITSTNQLLAVATQPITAVNVAFSSTGLKALGITDDLKDPVFEAGMLSNAVSDLSDPGTGNWVPGFVGTSVHGVFLLASDTIDNVNTELANIQTILNGSITEIHRLQGEARPGDQQGHEHFGFMDGISNPAVDGFTPPAEIRPGQALIPPGIMLLGEANDTFQNDRPPWAKDGSFLVFRQMQQRAPEFNKFLQDHALNMPNMTSEQGADLLGARIVGRWKSDAPIDLTPLVDDPVLAADNQRNNNFDFSDATNQTRCPFSAFIRKANPRGDLGGINKFPNQHIIRAGIPYGPEVTDAEKASNSSSTDPSLERGLAFVAYQSNIQNGFVFLQKNWVDNTNFFRPGTGVDPLIGTNSRNSGTDAPNTPRVVSGLDPNNATSTIEIGIDFVVSRGGEYFFSPSLSAIRTVLSV
notes: site-directed mutant
B2 showed a Km [2] of 906 ± 26 µM, a kcat [2] of 0.142 ± 0.0031 s⁻¹ and a kcat/Km [2] of 156 ± 8 M⁻¹ s⁻¹.

B3: Marasmius scorodonius peroxidase MsP1 variant R388L (parent SEQ ID NO: 1) (Mycetinis scorodonius; R388L) (protein)
chain: ASSSAGLNLTDIQGDILIGMKKNKELFFFFSITDAATFKAKLGSDILELITSTNQLLAVATQPITAVNVAFSSTGLKALGITDDLKDPVFEAGMLSNAVSDLSDPGTGNWVPGFVGTSVHGVFLLASDTIDNVNTELANIQTILNGSITEIHRLQGEARPGDQQGHEHFGFMDGISNPAVDGFTPPAEIRPGQALIPPGIMLLGEANDTFQNDRPPWAKDGSFLVFRQMQQRAPEFNKFLQDHALNMPNMTSEQGADLLGARIVGRWKSDAPIDLTPLVDDPVLAADNQRNNNFDFSDATNQTRCPFSAHIRKANPRGDLGGINKFPNQHIILAGIPYGPEVTDAEKASNSSSTDPSLERGLAFVAYQSNIQNGFVFLQKNWVDNTNFFRPGTGVDPLIGTNSRNSGTDAPNTPRVVSGLDPNNATSTIEIGIDFVVSRGGEYFFSPSLSAIRTVLSV
notes: R388L variant gene synthesized
Work on B3 yielded a Km [3] of 1140 ± 11 µM, a kcat [3] of 0.0218 ± 0.00018 s⁻¹ and a kcat/Km [3] of 19.2 ± 0.3 M⁻¹ s⁻¹.

B4: Marasmius scorodonius peroxidase MsP1 variant D228A (parent SEQ ID NO: 1) (Mycetinis scorodonius; D228A) (protein)
chain: ASSSAGLNLTDIQGDILIGMKKNKELFFFFSITDAATFKAKLGSDILELITSTNQLLAVATQPITAVNVAFSSTGLKALGITDDLKDPVFEAGMLSNAVSDLSDPGTGNWVPGFVGTSVHGVFLLASDTIDNVNTELANIQTILNGSITEIHRLQGEARPGDQQGHEHFGFMAGISNPAVDGFTPPAEIRPGQALIPPGIMLLGEANDTFQNDRPPWAKDGSFLVFRQMQQRAPEFNKFLQDHALNMPNMTSEQGADLLGARIVGRWKSDAPIDLTPLVDDPVLAADNQRNNNFDFSDATNQTRCPFSAHIRKANPRGDLGGINKFPNQHIIRAGIPYGPEVTDAEKASNSSSTDPSLERGLAFVAYQSNIQNGFVFLQKNWVDNTNFFRPGTGVDPLIGTNSRNSGTDAPNTPRVVSGLDPNNATSTIEIGIDFVVSRGGEYFFSPSLSAIRTVLSV
notes: site-directed mutant
Work on B4 yielded a Km [4] of 4230 ± 82 µM, a kcat [4] of 0.388 ± 0.0073 s⁻¹ and a kcat/Km [4] of 91.6 ± 3.5 M⁻¹ s⁻¹.

B5: Marasmius scorodonius peroxidase MsP1, wild type (wtMsP1), SEQ ID NO: 1 (Mycetinis scorodonius) (protein)
chain: ASSSAGLNLTDIQGDILIGMKKNKELFFFFSITDAATFKAKLGSDILELITSTNQLLAVATQPITAVNVAFSSTGLKALGITDDLKDPVFEAGMLSNAVSDLSDPGTGNWVPGFVGTSVHGVFLLASDTIDNVNTELANIQTILNGSITEIHRLQGEARPGDQQGHEHFGFMDGISNPAVDGFTPPAEIRPGQALIPPGIMLLGEANDTFQNDRPPWAKDGSFLVFRQMQQRAPEFNKFLQDHALNMPNMTSEQGADLLGARIVGRWKSDAPIDLTPLVDDPVLAADNQRNNNFDFSDATNQTRCPFSAHIRKANPRGDLGGINKFPNQHIIRAGIPYGPEVTDAEKASNSSSTDPSLERGLAFVAYQSNIQNGFVFLQKNWVDNTNFFRPGTGVDPLIGTNSRNSGTDAPNTPRVVSGLDPNNATSTIEIGIDFVVSRGGEYFFSPSLSAIRTVLSV
notes: wild type
With B5 the Km [5] was 845 ± 11 µM, the kcat [5] was 0.229 ± 0.0024 s⁻¹ and the kcat/Km [5] was 271 ± 6.2 M⁻¹ s⁻¹.
